{
  "source": "paper PMC3406662",
  "about": "(The Journal of Biological Chemistry, 2012)",
  "proteins": {"B1": {"name": "His6-Dma1(187–end) (domain or fragment, S. pombe, UniProt Q10322 187-267, looked up)", "chain": "SGPPECCICLMPVLPCQALFVAPCSHSYHYKCIRPTLNESHPYFSCFICRKYHDLEAPVEEGDESLNDLLRNATVKDDASE"}},
  "biological_target": "the molecule itself",
  "experiment": "AUC",
  "data": [
    {"protein": "B1", "values": [
      {"measurement": "stoichiometry N", "value": 2}
    ]}
  ]
}
